The chains are these.
B1: pAM144 (B4 domain of Protein L; pos 10 N, pos 45 N, pos 60 N) (protein)
chain: PKEEVTIKANLIYADGKTQTAEFKGTFAEATAEAYRYADLLAKENGKYTADLEDGGYTINIRFAGKKVDEKPEE
B2: pAM170 (B4 domain of Protein L; pos 10 Y, pos 45 H, pos 60 Y) (designed binder)
chain: B1 chain with N10Y, N45H, N60Y
B3: pAM157 (B4 domain of Protein L; pos 10 Q, pos 45 A, pos 60 Q) (designed binder)
chain: B1 chain with N10Q, N45A, N60Q
B4: pAM143 (B2 domain of Protein L; pos 10 N, pos 45 N, pos 60 N) (protein)
chain: PKEEVTIKANLIYADGKTQTAEFKGTFEEAAAEAYRYADALKKDNGEYTVDVADKGYTLNIKFAGKEKTPEE
B5: pAM169 (B2 domain of Protein L; pos 10 Y, pos 45 H, pos 60 Y) (designed binder)
chain: B4 chain with N10Y, N45H, N60Y
B6: pAM156 (B2 domain of Protein L; pos 10 Q, pos 45 A, pos 60 Q) (designed binder)
chain: B4 chain with N10Q, N45A, N60Q
B7: pAM145 (B5 domain of Protein L with H45N backbone; pos 10 N, pos 45 N, pos 60 N) (designed binder)
chain: KEQVTIKENIYFEDGTVQTATFKGTFAEATAEAYRYADLLSKENGKYTADLEDGGYTINIRFAGKEEPEE
B8: pAM180 (B5 domain of Protein L; pos 10 N, pos 45 H, pos 60 N) (protein)
chain: B7 chain with N44H
B9: pAM171 (B5 domain of Protein L; pos 10 Y, pos 45 H, pos 60 Y) (designed binder)
chain: B7 chain with N9Y, N44H, N59Y
B10: pAM158 (B5 domain of Protein L; pos 10 Q, pos 45 A, pos 60 Q) (designed binder)
chain: B7 chain with N9Q, N44A, N59Q
B11: pAM146 (C1 domain of Protein L; pos 10 N, pos 45 N, pos 60 N) (protein)
chain: PEEEVTIKANLIFADGSTQNAEFKGTFAKAVSDAYAYADALKKDNGEYTVDVADKGLTLNIKFAGKKEKPEE
B12: pAM172 (C1 domain of Protein L; pos 10 Y, pos 45 H, pos 60 Y) (designed binder)
chain: B11 chain with N10Y, N45H, N60Y
B13: pAM159 (C1 domain of Protein L; pos 10 Q, pos 45 A, pos 60 Q) (designed binder)
chain: B11 chain with N10Q, N45A, N60Q
B14: pAM141 (B1 domain of Protein L; pos 10 N, pos 45 N, pos 60 N) (protein)
chain: SEEEVTIKANLIFANGSTQTAEFKGTFEKATSEAYAYADTLKKDNGEYTVDVADKGYTLNIKFAGKEKTPEE
B15: pAM154 (B1 domain of Protein L; pos 10 Q, pos 45 A, pos 60 Q) (designed binder)
chain: B14 chain with N10Q, N45A, N60Q
B16: pAM167 (B1 domain of Protein L; pos 10 Y, pos 45 H, pos 60 Y) (designed binder)
chain: B14 chain with N10Y, N45H, N60Y
B17: pAM148 (C2 domain of Protein L; pos 10 N, pos 45 N, pos 60 N) (protein)
chain: PKEEVTIKVNLIFADGKTQTAEFKGTFEEATAKAYAYADLLAKENGEYTADLEDGGNTINIKFAGKETPETPEE
B18: pAM175 (C2 domain of Protein L; pos 10 Y, pos 45 H, pos 57 Y, pos 60 Y) (designed binder)
chain: B17 chain with N10Y, N45H, N57Y, N60Y
B19: pAM162 (C2 domain of Protein L; pos 10 Q, pos 45 A, pos 57 Y, pos 60 Q) (designed binder)
chain: B17 chain with N10Q, N45A, N57Y, N60Q
B20: pAM149 (C2 domain of Protein L; pos 10 N, pos 45 N, pos 57 Y, pos 60 N) (designed binder)
chain: B17 chain with N57Y
B21: pAM174 (C2 domain of Protein L; pos 10 Y, pos 45 H, pos 60 Y) (designed binder)
chain: B17 chain with N10Y, N45H, N60Y

Our source for the Kd values is patent US20240391984A1.

Changes are numbered by the printed parent chain. Names may count otherwise.

In this assay the target is polyclonal IgG (Gammanorm, Octapharma, Sweden). As to the kind of experiment: SPR (Biacore 8K+), variant amine-coupled to CM5, Gammanorm as analyte, steady state fit. A general note: In SPR one partner is held on a chip, and binding of the other changes the refractive index at the surface.
For orientation: Kd means the concentration at which binding is half-saturated. A high value points to weaker binding. Take B1: the Kd is 0.038 µM.

For B2, the Kd came to 0.049 µM.

For B3, the Kd was found to be 0.038 µM.

On to B4, for which the Kd is 0.036 µM.

B5 yielded a Kd of 0.076 µM.

For B6, the Kd worked out at 0.092 µM.

In turn, B7 showed a Kd of 0.011 µM.

B8 had a Kd of 0.021 µM.

In the case of B9, the Kd worked out at 0.04 µM.

For the molecule B10, the dissociation constant Kd amounted to 0.024 µM.

The molecule B11 returned a Kd of 0.061 µM.

B12 yielded a Kd of 0.11 µM.

For the molecule B13, the Kd is 0.103 µM.

Regarding B14, the Kd worked out at 0.048 µM.

Turning to B15, the Kd was 0.065 µM.

Turning to B16, the Kd is 0.097 µM.

B17 yielded a Kd of 0.035 µM.

B18 displayed a Kd of 0.057 µM.

B19: the Kd was determined as 0.039 µM.

Take B20: the Kd came to 0.045 µM.

The molecule B21 came in with a Kd of 0.105 µM.
